Reference: patent publication US20240216513A1, “FATTY ACID-BIFUNCTIONAL DEGRADER CONJUGATES AND THEIR METHODS OF USE” (Novartis AG, priority 2021, published 2024)
Where two headings read alike, the source gives them in different places.

How the values were obtained:
[1] = BTK FAC plasma stability assay, mouse plasma; assay type: in vitro ADME; conditions: for Plasma stability (h) mouse: incubation to 24 h
In short: (§1)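 Stability in PBS buffer or EDTA-treated plasma is followed over 24 h at 38 °C with shaking. Protein precipitation with acetonitrile (glyburide 0.2 µM as internal standard) stops each timepoint, and LC-MS/MS gives analyte-to-standard area ratios.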

[2] = BTK FAC plasma stability assay, rat plasma; assay type: in vitro ADME; conditions: for Plasma stability (h) rat: incubation to 24 h
In short: as §1

[3] = In vivo pharmacokinetic study in Beagle dogs (i.v. or s.c.), FAC and payload in blood; design: species or system dog; conditions: for Payload C0-uM dog: analyte payload after FAC i.v. dose 1 umol/kg
Procedure: (§2) Pharmacokinetic studies were conducted in male C57/B16 mice; male Sprague-Dawley rats; male Beagle dogs and male Cynomolgus monkeys. 3 animals per group were used for each study performed. All studies were performed in accordance with local animal welfare regulations.
Between 1 and 10 µM/kg FAC was administered either intravenously or subcutaneously as a solution in 10 mM PBS with NaOH (dose volume 0.4 mL/kg in dog and monkey s.c. and 0.2 mL/kg i.v. in monkey). Serial 100 µL blood samples were collected via venipuncture of the cephalic vein at defined timepoints to 336 hours (into EDTA coated tubes).
(§3) Each blood sample was precipitated with acetonitrile containing internal standard; samples were mixed and centrifuged (20 minutes 4000 RPM at 4° C.). Supernatant was transferred to a microwell plate and evaporated under nitrogen at 60° C. Residue was resuspended in acetonitrile/water (7:3 v/v); plate sealed and transferred to an ultrasonic bath for 3 minutes, prior to analysis. Quantification was performed by LC-MS/MS (SciexAP16500 Q-trap, Shimadzu Nexera X2) using a Phenomenex Polar RP analytical column (2.5 μm particle size; 50×2 mm). The mobile phase consisted of solvent A (0.1% formic acid in water) and solvent B (0.1% formic acid in acetonitrile). The fatty acid conjugate and API were detected using multiple reaction monitoring.
(§4) Data analysis and calculation of non-compartmental pharmacokinetic parameters was
(§5) performed using an in-house analysis. Following intravenous administration whole blood clearance was calculated by the dose administered divided by AUC0-inf. Volume of distribution at steady state was calculated as MRT*CL, where MRT is the mean residence time, calculated by AUMC0-inf/AUC0-inf. The half-life (t1/2) of the terminal elimination phase was calculated by 0.693/λ. For both intravenous and subcutaneous administration, the systemic exposures were determined by calculating the area under the blood concentration time curve (AUC) from time zero to the last observed quantifiable concentration (AUClast) by using the linear trapezoidal method and normalised to dose. Extrapolated AUC (AUC0-inf) is calculated by addition of AUClast and AUCtlast-inf; where AUCtlast-inf is calculated based on Clast/λ. The slope of the terminal elimination phase was estimated by linear regression of the terminal data points (minimum 3 points) from a natural log concentration versus time plot of the data. Bioavailability was calculated as the dose normalized ratio of […] AUCinf to intravenous AUCinf (100*[SC AUCinf/SC dose]/[IV AUCinf/IV dose]). Following subcutaneous administration Cmax is calculated as the average maximum observed peak concentration and Tmax is the time associated with the determined Cmax.

[4] = BTK FAC plasma stability assay, dog plasma; assay type: in vitro ADME
[5] = BTK FAC plasma stability assay, PBS buffer arm; assay type: physicochemical; conditions: for Plasma stability (h) PBS: incubation to 24 h
In short: as §1

[6] = In vivo pharmacokinetic study in mice (i.v. or s.c.), FAC and payload in blood; design: species or system mouse; conditions: for AUC: male
Procedure: as §2
[…] Serial 30 µL blood samples were collected via venipuncture of the tail vein in mouse, and via the cannulated jugular vein in rats at defined timepoints to 216 hours (into EDTA coated tubes).
as §3, §4, §5
For PK experiments, non-tumor bearing mice or rats were treated once (10 mL/kg) with a compound either i.v. or s.c. Serial blood samplings from the tail vein (5-20 μl) were collected during the course of the experiment. For PK/PD experiments in tumor-bearing mice, compound was administered once (10 mL/kg) either i.v. or s.c. Animals were randomized into groups of n=3 and tissue samples were collected at several time points. At the times indicated, animals were anaesthetized by exposure to 2-3% v/v isoflurane in medical oxygen. They were sacrificed without recovering from anesthetic after blood sampling into commercially prepared EDTA coated tubes (Milian, cat #TOM-14C) in order to extract plasma. The tissues were excised, weighted and rapidly frozen in liquid nitrogen. Later, tumors were cryogenic dry pulverized with the CryoPrep™ system (model CP-02, Covaris). For efficacy experiments in ectopic tumor-bearing mice, animals were randomized into groups of n=6 for a mean tumor size of 100 mm^3 and compound was administered either i.v. q3w or s.c. q2w. When implanted in brain, animals were randomized into groups of n=4 for a mean bioluminescence of 1.0-2.0E+06 [p/s]/[ρW/cm^2] and compound was administered i.v. qw. Tumor response were reported with the measures of tumor volumes or bioluminescence from the treatment start. […]

[7] = BTK FAC plasma stability assay, cyno plasma; assay type: in vitro ADME, cynomolgus monkey
BTK C481S = target: T1, BTK C481S (Homo sapiens, UniProt Q06187, C481S); assay: PD screen in TMD8 BTK C481S mutant tumor-bearing mice, BTK levels and compound concentrations in blood and tumor; assay type: in vivo, mouse; conditions: i.v.; 50 umol/kg
T1 construct: endogenous in cells; host or cells: TMD8 BTK C481S mutant tumour xenografts in mice
In short: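 Single compound injection in mice bearing TMD8 BTK C481S tumors, groups of 2, with blood and tumor sampled at day 0, 4, 7 and sometimes 10. Compound levels measured by UPLC/MS-MS and BTK levels by Meso Scale Discovery.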

T1 sequence (Q06187 whole entry C481S): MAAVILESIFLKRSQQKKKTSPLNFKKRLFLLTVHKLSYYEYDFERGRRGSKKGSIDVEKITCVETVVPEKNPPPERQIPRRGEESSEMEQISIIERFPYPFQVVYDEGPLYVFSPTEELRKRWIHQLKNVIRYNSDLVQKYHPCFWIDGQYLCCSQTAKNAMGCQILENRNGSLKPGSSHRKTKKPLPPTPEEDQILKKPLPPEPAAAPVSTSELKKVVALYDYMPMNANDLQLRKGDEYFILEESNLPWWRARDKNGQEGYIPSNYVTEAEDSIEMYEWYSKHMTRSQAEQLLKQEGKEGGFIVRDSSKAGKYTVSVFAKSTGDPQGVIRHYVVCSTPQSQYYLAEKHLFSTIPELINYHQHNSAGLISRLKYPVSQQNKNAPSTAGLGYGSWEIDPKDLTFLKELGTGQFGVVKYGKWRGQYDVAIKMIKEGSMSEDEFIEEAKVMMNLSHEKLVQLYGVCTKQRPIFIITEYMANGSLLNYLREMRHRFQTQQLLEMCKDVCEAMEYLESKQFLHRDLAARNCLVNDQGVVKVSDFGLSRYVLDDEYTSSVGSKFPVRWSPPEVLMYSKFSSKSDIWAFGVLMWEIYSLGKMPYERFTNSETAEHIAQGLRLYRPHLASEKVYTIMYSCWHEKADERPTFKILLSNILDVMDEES

Compound | % Release of degrader after 24 h mouse [1] | Plasma stability (h) mouse [1] | % Release of degrader after 24 h rat [2] | Plasma stability (h) rat [2] | C0 ([3]; analyte FAC, FAC i.v. dose 1 umol/kg, read-out: FAC C0-uM dog) | AUC ([3]; male, Beagle, dog, whole blood, iv, analyte FAC, FAC i.v. dose 1 umol/kg, read-out: FAC AUC-uM.h dog) | C0 ([3]; male, Beagle, whole blood, sc, dog, subcutaneous dosing, FAC s.c. dose 1 umol/kg, read-out: FAC C0) | Plasma stability (h) dog [4] | % Release of degrader after 24 h dog [4] | % Release of degrader after 24 h PBS [5] | Plasma stability (h) PBS [5] | Payload C0-uM (unconjugated degrader dosed, first payload cell) ([6]; API i.v., listed as note (20 mg/kg), species taken as mouse) | AUC ([6]; C57/B16, whole blood, iv, API i.v., listed as note (20 mg/kg), species taken as mouse, read-out: Payload AUC-uM.h (unconjugated degrader dosed, first payload cell)) | AUC ([6]; C57/B16, whole blood, sc, mouse, subcutaneous dosing, unconjugated Compound Va at 20 mg/kg, read-out: Payload AUC) | Plasma stability (h) cyno [7] | % Release of degrader after 24 h cyno [7] | Payload C0-uM dog [3] | AUC ([6]; C57/B16, mouse, in vivo, iv, analyte FAC, FAC i.v. dose 10 umol/kg, read-out: FAC AUC-uM.h mouse) | Duration of BTK degradation in mouse ≥90% (BTK C481S)
CCCCCCCCCCCN(C(=O)CCCCCCCCCC(=O)O)C(CCC(=O)NCCOCCOCCOCCOCCOCCOCCOCCOCCOCCOCCOCCOCCC(=O)NCC(=O)OC(C)(C)c1ccc(C(=O)Nc2cc(F)cc(-c3ncnc4[nH]c(-c5ccc(CCN6CCC7(CC6)CCN(C(=O)c6ccc(OC)c(N8CCC(=O)NC8=O)c6)CC7)cc5)cc34)c2C)c(F)c1)C(=O)O (centres unmarked) [Example A1, 50-Carboxy-2-(4-((3-(6-(4-(2-(9-(3-(2,4-dioxotetrahydropyrimidin-1(2H)-yl)-4-methoxybenzoyl)-3,9-diazaspiro[5.5]undecan-3-yl)ethyl)phenyl)-7H-pyrrolo[2,3-d]pyrimidin-4-yl)-5-fluoro-2-methylphenyl)carbamoyl)-3-fluorophenyl)-2-methyl-4,7,47,52-tetraoxo-51-undecyl-3,10,13,16,19,22,25,28,31,34,37,40,43-tridecaoxa-6,46,51-triazadohexacontan-62-oic acid] | 15.1% | 28 h | 17.4% | 34.8 h | 27.2 µM | 6.8 µM·h | 0.28 µM | >48 h | 14.6% | 1% | >48 h |  |  |  |  |  |  |  | 
COc1ccc(C(=O)N2CCC3(CCN(CCc4ccc(-c5cc6c(-c7cc(F)cc(NC(=O)N8C[C@H](CC(C)C)[C@@H](O)C8)c7C)ncnc6[nH]5)cc4)CC3)CC2)cc1N1CCC(=O)NC1=O [Compound Va, (3R,4S)—N-(3-(6-(4-(2-(9-(3-(2,4-dioxotetrahydropyrimidin-1(2H)-yl)-4-methoxybenzoyl)-3,9-diazaspiro[5.5]undecan-3-yl)ethyl)phenyl)-7H-pyrrolo[2,3-d]pyrimidin-4-yl)-5-fluoro-2-methylphenyl)-3-hydroxy-4-isobutylpyrrolidine-1-carboxamide] |  |  |  |  |  |  |  |  |  |  |  | 16.7 µM | 15.2 µM·h | 15.2 µM·h |  |  |  |  | 
CCCCCCCCCCCN(C(=O)CCCCCCCCCC(=O)O)C(CCC(=O)NCCOCCOCCOCCOCCOCCOCCOCCOCCOCCOCCOCCOCCC(=O)NCc1ccc(CC(=O)OC(C)(C)c2ccc(C(=O)Nc3cc(F)cc(-c4ncnc5[nH]c(-c6ccc(CCN7CCC8(CC7)CCN(C(=O)c7ccc(OC)c(N9CCC(=O)NC9=O)c7)CC8)cc6)cc45)c3C)c(F)c2)cc1)C(=O)O (centres unmarked) [Example A23, 46-Carboxy-1-(4-(2-((2-(4-((3-(6-(4-(2-(9-(3-(2,4-dioxotetrahydropyrimidin-1(2H)-yl)-4-methoxybenzoyl)-3,9-diazaspiro[5.5]undecan-3-yl)ethyl)phenyl)-7H-pyrrolo[2,3-d]pyrimidin-4-yl)-5-fluoro-2-methylphenyl)carbamoyl)-3-fluorophenyl)propan-2-yl)oxy)-2-oxoethyl)phenyl)-3,43,48-trioxo-47-undecyl-6,9,12,15,18,21,24,27,30,33,36,39-dodecaoxa-2,42,47-triazaoctapentacontan-58-oic acid] | 5.8% | >48 h | 1.1% | >48 h |  |  |  | >48 h | 0.8% | 0.2% | >48 h |  |  |  | >48 h | 0.6% | 0.59 µM | 856 µM·h | 
CCCCCCCCCCCN(C(=O)CCCCCCCCCC(=O)O)C(CCC(=O)NCCOCCOCCOCCOCCOCCOCCOCCOCCOCCOCCOCCOCCC(=O)NC(C)(C)CC(=O)OC(C)(C)c1ccc(C(=O)Nc2cc(F)cc(-c3ncnc4[nH]c(-c5ccc(CCN6CCC7(CC6)CCN(C(=O)c6ccc(OC)c(N8CCC(=O)NC8=O)c6)CC7)cc5)cc34)c2C)c(F)c1)C(=O)O (centres unmarked) [Example A18, 51-Carboxy-2-(4-((3-(6-(4-(2-(9-(3-(2,4-dioxotetrahydropyrimidin-1(2H)-yl)-4-methoxybenzoyl)-3,9-diazaspiro[5.5]undecan-3-yl)ethyl)phenyl)-7H-pyrrolo[2,3-d]pyrimidin-4-yl)-5-fluoro-2-methylphenyl)carbamoyl)-3-fluorophenyl)-2,6,6-trimethyl-4,8,48,53-tetraoxo-52-undecyl-3,11,14,17,20,23,26,29,32,35,38,41,44-tridecaoxa-7,47,52-triazatrihexacontan-63-oic acid] | 0.8% | >48 h | 0.2% | >48 h |  |  |  | >48 h | 0.3% | 0.6% | >48 h |  |  |  | >48 h | 0.4% | 0.3 µM |  | <4 days
